Data reported in IntAct's records for PubMed 23213219.

B1: UL37 immediate early glycoprotein (Human cytomegalovirus (strain AD169) (HHV-5)), P16778 (parent)
chain: MSPVYVNLLGSVGLLAFWYFSYRWIQRKRLEDPLPPWLRKKKACALTRRSRHRLRRQHGVIDGENSETERSVDLVAALLAEAGEESVTEDTEREDTEEEREDEEEENEARTPEVNPIDAEGLSGLAREACEALKKALRRHRFLWQRRQRARMLQHNGPQQSHHAAVFCRVHGLRGFQVSVWLLLTLLWSTGHGVSVRCTYHGTDVNRTSNTTSMNCHLNCTRNHTQIYNGPCLGTEARLPLNVTFNQSRRKWHSVMLKFGFQYHLEGWFPLRVLNESREINVTEVHGEVACFRNDTNVTVGQLTLNFTGHSYVLRAIAHTSPFESYVRWEETNVTDNATSSENTTTVMSTLTKYAESDYIFLQDMCPRFLKRTVKLTRNKTKHNVTVTGNNMTTLPVWTPECKGWTYWTTLSVMWRNRRSALLRAKSRALGHWALLSICTVAAGSIALLSLFCILLIGLRRDLLEDFRYICRDEGSSSTKNDVHRIV

Variants of: B1
Details: with bax_human BAX

Row | Variant | effect of a mutation on the interaction
1 | MSPVYVNLLGSVGLLAFWYFSYRWIQRKRLEDPLPPWLRKKKACALTRRSRHRLRRQHGVIDGENSETERSVDLVAALLAEAGEESVTEDTEREDTEEEREDEEEENEARTPEVNPIDAEGLSGLAREACEALKKALRRHRFLWQERQRARMLQHNGPQQSHHAAVFCRVHGLRGFQVSVWLLLTLLWSTGHGVSVRCTYHGTDVNRTSNTTSMNCHLNCTRNHTQIYNGPCLGTEARLPLNVTFNQSRRKWHSVMLKFGFQYHLEGWFPLRVLNESREINVTEVHGEVACFRNDTNVTVGQLTLNFTGHSYVLRAIAHTSPFESYVRWEETNVTDNATSSENTTTVMSTLTKYAESDYIFLQDMCPRFLKRTVKLTRNKTKHNVTVTGNNMTTLPVWTPECKGWTYWTTLSVMWRNRRSALLRAKSRALGHWALLSICTVAAGSIALLSLFCILLIGLRRDLLEDFRYICRDEGSSSTKNDVHRIV [R146E] | decreasing interaction strength
2 | MSPVYVNLLGSVGLLAFWYFSYRWIQRKRLEDPLPPWLRKKKACALTRRSRHRLRRQHGVIDGENSETERSVDLVAALLAEAGEESVTEDTEREDTEEEREDEEEENEARTPEVNPIDAEGLSGLAREACEALKKALRRHRFAWQRRQRARMLQHNGPQQSHHAAVFCRVHGLRGFQVSVWLLLTLLWSTGHGVSVRCTYHGTDVNRTSNTTSMNCHLNCTRNHTQIYNGPCLGTEARLPLNVTFNQSRRKWHSVMLKFGFQYHLEGWFPLRVLNESREINVTEVHGEVACFRNDTNVTVGQLTLNFTGHSYVLRAIAHTSPFESYVRWEETNVTDNATSSENTTTVMSTLTKYAESDYIFLQDMCPRFLKRTVKLTRNKTKHNVTVTGNNMTTLPVWTPECKGWTYWTTLSVMWRNRRSALLRAKSRALGHWALLSICTVAAGSIALLSLFCILLIGLRRDLLEDFRYICRDEGSSSTKNDVHRIV [L143A] | decreasing interaction strength
3 | MSPVYVNLLGSVGLLAFWYFSYRWIQRKRLEDPLPPWLRKKKACALTRRSRHRLRRQHGVIDGENSETERSVDLVAALLAEAGEESVTEDTEREDTEEEREDEEEENEARTPEVNPIDAEGLSGLAREACEALKKALREHRFLWQRRQRARMLQHNGPQQSHHAAVFCRVHGLRGFQVSVWLLLTLLWSTGHGVSVRCTYHGTDVNRTSNTTSMNCHLNCTRNHTQIYNGPCLGTEARLPLNVTFNQSRRKWHSVMLKFGFQYHLEGWFPLRVLNESREINVTEVHGEVACFRNDTNVTVGQLTLNFTGHSYVLRAIAHTSPFESYVRWEETNVTDNATSSENTTTVMSTLTKYAESDYIFLQDMCPRFLKRTVKLTRNKTKHNVTVTGNNMTTLPVWTPECKGWTYWTTLSVMWRNRRSALLRAKSRALGHWALLSICTVAAGSIALLSLFCILLIGLRRDLLEDFRYICRDEGSSSTKNDVHRIV [R139E] | decreasing interaction strength
